The series deals with the molecule itself. Description: non-reducing SDS-PAGE without heating.

B1: cholera toxin B subunit (recombinant, His6-tagged CTB) (natural protein)
chain: TPQNITDLCAEYHNTQIYTLNDKIFSYTESLAGKREMAIITFKNGAIFQVEVPGSQHIDSQKKAIERMKDTLRIAYLTEAKVEKLCVWNNKTPHAIAAISMAN
As a reminder, the stoichiometry N is a count of units in the complex or per binding partner. B1: the “stoichiometry N” value worked out at 5.
